According to the supplement of paper PMC5998384:

Legend:
[1] = test system: HeLa Kyoto; assay: melting temperature (median over replicates), in situ; higher = more thermally stable
[2] = test system: HeLa Kyoto; assay: thermal stability score vs G1/S (z-score of summed log2 fold changes over temperatures); higher = more thermally stable than in G1/S
[3] = test system: HeLa Kyoto; assay: solubility in G1/S (NP-40 vs SDS abundance) (log2 ratio); higher = more soluble; conditions: cell cycle stage: G1/S
[4] = test system: HeLa Kyoto; assay: solubility change mitosis vs G1/S (difference of NP-40 vs SDS log2 ratios) (log2 ratio difference); higher = more soluble in mitosis
[5] = cell cycle stage: early G1 (4.5 h after nocodazole release)
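Wherever melting temperature (median over replicates), in situ is given: HeLa Kyoto cells synchronized by double thymidine or nocodazole block, proteins quantified by TMT10plex mass spectrometry, three independent biological replicates.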
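Wherever solubility change mitosis vs G1/S (difference of NP-40 vs SDS log2 ratios) is given: synchronized HeLa Kyoto cells (double thymidine block for G1/S, nocodazole release for mitosis), protein amounts in NP-40 versus SDS lysates quantified by mass spectrometry, three biological replicates.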
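Wherever solubility in G1/S (NP-40 vs SDS abundance) is given: HeLa Kyoto cells arrested at G1/S by double thymidine block, proteins quantified by TMT10plex mass spectrometry in mild NP-40 versus SDS extracts, three biological replicates.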
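Wherever thermal stability score vs G1/S (z-score of summed log2 fold changes over temperatures) is given: synchronized HeLa Kyoto cells, proteins quantified by TMT10plex mass spectrometry, three biological replicates, mitosis taken 0.5 h after nocodazole release, G1/S directly after double thymidine block.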

Sequence | melting temperature ([1]; cell cycle stage: mitosis) [°C] | thermal stability score [2, 5] | thermal stability score ([2]; cell cycle stage: mitosis) | solubility in G1/S (log2) [3] | solubility change mitosis (log2) [4] | melting temperature ([1]; cell cycle stage: G1/S) [°C]
MATLPAEPSAGPAAGGEAVAAAAATEEEEEEARQLLQTLQAAEGEAAAAAGAGAGAAAAGAEGPGSPGVPGSPPEAASEPPTGLRFSPEQVACVCEALLQAGHAGRLSRFLGALPPAERLRGSDPVLRARALVAFQRGEYAELYRLLESRPFPAAHHAFLQDLYLRARYHEAERARGRALGAVDKYRLRKKFPLPKTIWDGEETVYCFKERSRAALKACYRGNRYPTPDEKRRLATLTGLSLTQVSNWFKNRRQRDRTGAGGGAPCKSESDGNPTTEDESSRSPEDLERGAAPVSAEAAAQGSIFLAGTGPPAPCPASSSILVNGSFLAASGSPAVLLNGGPVIINGLALGEASSLGPLLLTGGGGAPPPQPSPQGASETKTSLVLDPQTGEVRLEEAQSEAPETKGAQVAAPGPALGEEVLGPLAQVVPGPPTAATFPLPPGPVPAVAAPQVVPLSPPPGYPTGLSPTSPLLNLPQVVPTSQVVTLPQAVGPLQLLAAGPGSPVKVAAAAGPANVHLINSGVGVTALQLPSATAPGNFLLANPVSGSPIVTGVALQQGKIILTATFPTSMLVSQVLPPAPGLALPLKPETAISVPEGGLPVAPSPALPEAHALGTLSAQQPPPAAATTSSTSLPFSPDSPGLLPNFPAPPPEGLMLSPAAVPVWSAGLELSAGTEGLLEAEKGLGTQAPHTVLRLPDPDPEGLLLGATAGGEVDEGLEAEAKVLTQLQSVPVEEPLEL [SIX5] | 50.7 | 0.121 | 0.872 | -0.308 | 0.346 | –
MATPGNLGSSVLASKTKTKKKHFVAQKVKLFRASDPLLSVLMWGVNHSINELSHVQIPVMLMPDDFKAYSKIKVDNHLFNKENMPSHFKFKEYCPMVFRNLRERFGIDDQDFQNSLTRSAPLPNDSQARSGARFHTSYDKRYIIKTITSEDVAEMHNILKKYHQYIVECHGITLLPQFLGMYRLNVDGVEIYVIVTRNVFSHRLSVYRKYDLKGSTVAREASDKEKAKELPTLKDNDFINEGQKIYIDDNNKKVFLEKLKKDVEFLAQLKLMDYSLLVGIHDVERAEQEEVECEENDGEEEGESDGTHPVGTPPDSPGNTLNSSPPLAPGEFDPNIDVYGIKCHENSPRKEVYFMAIIDILTHYDAKKKAAHAAKTVKHGAGAEISTVNPEQYSKRFLDFIGHILT [PIP4K2A] | 49.4 | 2.24 | 1.11 | 0.309 | -0.142 | 49.8
MATPSKKTSTPSPQPSKRALPRDPSSEVPSKRKNSAPQLPLLQSSGPFVEGSIVRISMENFLTYDICEVSPGPHLNMIVGANGTGKSSIVCAICLGLAGKPAFMGRADKVGFFVKRGCSRGMVEIELFRASGNLVITREIDVAKNQSFWFINKKSTTQKIVEEKVAALNIQVGNLCQFLPQDKVGEFAKLSKIELLEATEKSIGPPEMHKYHCELKNLREKEKQLETSCKEKTEYLQKMVQRNERYKQDVERFYERKRHLDLIEMLEAKRPWVEYENVRQEYEEVKLVRDRVKEEVRKLKEGQIPVTCRIEEMENERHNLEARIKEKATDIKEASQKCKQKQDVIERKDKHIEELQQALIVKQNEELDRQRRIGNTRKMIEDLQNELKTTENCENLQPQIDAITNDLRRIQDEKALCEGEIIDKRRERETLEKEKKSVDDHIVRFDNLMNQKEDKLRQRFRDTYDAVLWLRNNRDKFKQRVCEPIMLTINMKDNKNAKYIENHIPSNDLRAFVFESQEDMEVFLKEVRDNKKLRVNAVIAPKSSYADKAPSRSLNELKQYGFFSYLRELFDAPDPVMSYLCCQYHIHEVPVGTEKTRERIERVIQETRLKQIYTAEEKYVVKTSFYSNKVISSNTSLKVAQFLTVTVDLEQRRHLEEQLKEIHRKLQAVDSGLIALRETSKHLEHKDNELRQKKKELLERKTKKRQLEQKISSKLGSLKLMEQDTCNLEEEERKASTKIKEINVQKAKLVTELTNLIKICTSLHIQKVDLILQNTTVISEKNKLESDYMAASSQLRLTEQHFIELDENRQRLLQKCKELMKRARQVCNLGAEQTLPQEYQTQVPTIPNGHNSSLPMVFQDLPNTLDEIDALLTEERSRASCFTGLNPTIVQEYTKREEEIEQLTEELKGKKVELDQYRENISQVKERWLNPLKELVEKINEKFSNFFSSMQCAGEVDLHTENEEDYDKYGIRIRVKFRSSTQLHELTPHHQSGGERSVSTMLYLMALQELNRCPFRVVDEINQGMDPINERRVFEMVVNTACKENTSQYFFITPKLLQNLPYSEKMTVLFVYNGPHMLEPNTWNLKAFQRRRRRITFTQPS [SMC5] | 50.7 | 0.153 | 0.876 | -0.139 | -0.0502 | 50.6
MATQADLMELDMAMEPDRKAAVSHWQQQSYLDSGIHSGATTTAPSLSGKGNPEEEDVDTSQVLYEWEQGFSQSFTQEQVADIDGQYAMTRAQRVRAAMFPETLDEGMQIPSTQFDAAHPTNVQRLAEPSQMLKHAVVNLINYQDDAELATRAIPELTKLLNDEDQVVVNKAAVMVHQLSKKEASRHAIMRSPQMVSAIVRTMQNTNDVETARCTAGTLHNLSHHREGLLAIFKSGGIPALVKMLGSPVDSVLFYAITTLHNLLLHQEGAKMAVRLAGGLQKMVALLNKTNVKFLAITTDCLQILAYGNQESKLIILASGGPQALVNIMRTYTYEKLLWTTSRVLKVLSVCSSNKPAIVEAGGMQALGLHLTDPSQRLVQNCLWTLRNLSDAATKQEGMEGLLGTLVQLLGSDDINVVTCAAGILSNLTCNNYKNKMMVCQVGGIEALVRTVLRAGDREDITEPAICALRHLTSRHQEAEMAQNAVRLHYGLPVVVKLLHPPSHWPLIKATVGLIRNLALCPANHAPLREQGAIPRLVQLLVRAHQDTQRRTSMGGTQQQFVEGVRMEEIVEGCTGALHILARDVHNRIVIRGLNTIPLFVQLLYSPIENIQRVAAGVLCELAQDKEAAEAIEAEGATAPLTELLHSRNEGVATYAAAVLFRMSEDKPQDYKKRLSVELTSSLFRTEPMAWNETADLGLDIGAQGEPLGYRQDDPSYRSFHSGGYGQDALGMDPMMEHEMGGHHPGADYPVDGLPDLGHAQDLMDGLPPGDSNQLAWFDTDL [CTNNB1] | 52.4 | 0.0437 | 0.0622 | 0.0555 | -0.093 | 53.4
MATQAYTELQAAPPPSQPPQAPPQAQPQPPPPPPPAAPQPPQPPTAAATPQPQYVTELQSPQPQAQPPGGQKQYVTELPAVPAPSQPTGAPTPSPAPQQYIVVTVSEGAMRASETVSEASPGSTASQTGVPTQVVQQVQGTQQRLLVQTSVQAKPGHVSPLQLTNIQVPQQALPTQRLVVQSAAPGSKGGQVSLTVHGTQQVHSPPEQSPVQANSSSSKTAGAPTGTVPQQLQVHGVQQSVPVTQERSVVQATPQAPKPGPVQPLTVQGLQPVHVAQEVQQLQQVPVPHVYSSQVQYVEGGDASYTASAIRSSTYSYPETPLYTQTASTSYYEAAGTATQVSTPATSQAVASSGSMPMYVSGSQVVASSTSTGAGASNSSGGGGSGGGGGGGGGGGGGGSGSTGGGGSGAGTYVIQGGYMLGSASQSYSHTTRASPATVQWLLDNYETAEGVSLPRSTLYCHYLLHCQEQKLEPVNAASFGKLIRSVFMGLRTRRLGTRGNSKYHYYGLRIKASSPLLRLMEDQQHMAMRGQPFSQKQRLKPIQKMEGMTNGVAVGQQPSTGLSDISAQVQQYQQFLDASRSLPDFTELDLQGKVLPEGVGPGDIKAFQVLYREHCEAIVDVMVNLQFTLVETLWKTFWRYNLSQPSEAPPLAVHDEAEKRLPKAILVLLSKFEPVLQWTKHCDNVLYQGLVEILIPDVLRPIPSALTQAIRNFAKSLESWLTHAMVNIPEEMLRVKVAAAGAFAQTLRRYTSLNHLAQAARAVLQNTAQINQMLSDLNRVDFANVQEQASWVCRCEDRVVQRLEQDFKVTLQQQNSLEQWAAWLDGVVSQVLKPYQGSAGFPKAAKLFLLKWSFYSSMVIRDLTLRSAASFGSFHLIRLLYDEYMYYLIEHRVAQAKGETPIAVMGEFANLATSLNPLDPDKDEEEEEEEESEDELPQDISLAAGGESPALGPETLEPPAKLARTDARGLFVQALPSS [RFX1] | 53 | -1.2 | -2.15 | -0.00333 | -0.21 | 53.3
MATRSCREKAQKLNEQHQLILSKLLREEDNKYCADCEAKGPRWASWNIGVFICIRCAGIHRNLGVHISRVKSVNLDQWTAEQIQCMQDMGNTKARLLYEANLPENFRRPQTDQAVEFFIRDKYEKKKYYDKNAIAITNISSSDAPLQPLVSSPSLQAAVDKNKLEKEKEKKKEEKKREKEPEKPAKPLTAEKLQKKDQQLEPKKSTSPKKAAEPTVDLLGLDGPAVAPVTNGNTTVPPLNDDLDIFGPMISNPLPATVMPPAQGTPSAPAAATLSTVTSGDLDLFTEQTTKSEEVAKKQLSKDSILSLYGTGTIQQQSTPGVFMGPTNIPFTSQAPAAFQGFPSMGVPVPAAPGLIGNVMGQSPSMMVGMPMPNGFMGNAQTGVMPLPQNVVGPQGGMVGQMGAPQSKFGLPQAQQPQWSLSQMNQQMAGMSISSATPTAGFGQPSSTTAGWSGSSSGQTLSTQLWK [SMAP1] | 51.3 | 0.468 | -0.266 | -0.0223 | -0.142 | 51.2
MATRSPGVVISDDEPGYDLDLFCIPNHYAEDLERVFIPHGLIMDRTERLARDVMKEMGGHHIVALCVLKGGYKFFADLLDYIKALNRNSDRSIPMTVDFIRLKSYCNDQSTGDIKVIGGDDLSTLTGKNVLIVEDIIDTGKTMQTLLSLVRQYNPKMVKVASLLVKRTPRSVGYKPDFVGFEIPDKFVVGYALDYNEYFRDLNHVCVISETGKAKYKA [HPRT1] | 59.7 | -0.74 | -3.12 | 0.209 | -0.113 | 58.5
MATSAPLRSLEEEVTCSICLDYLRDPVTIDCGHVFCRSCTTDVRPISGSRPVCPLCKKPFKKENIRPVWQLASLVENIERLKVDKGRQPGEVTREQQDAKLCERHREKLHYYCEDDGKLLCVMCRESREHRPHTAVLMEKAAQPHREKILNHLSTLRRDRDKIQGFQAKGEADILAALKKLQDQRQYIVAEFEQGHQFLREREEHLLEQLAKLEQELTEGREKFKSRGVGELARLALVISELEGKAQQPAAELMQDTRDFLNRYPRKKFWVGKPIARVVKKKTGEFSDKLLSLQRGLREFQGKLLRDLEYKTVSVTLDPQSASGYLQLSEDWKCVTYTSLYKSAYLHPQQFDCEPGVLGSKGFTWGKVYWEVEVEREGWSEDEEEGDEEEEGEEEEEEEEAGYGDGYDDWETDEDEESLGDEEEEEEEEEEEVLESCMVGVARDSVKRKGDLSLRPEDGVWALRLSSSGIWANTSPEAELFPALRPRRVGIALDYEGGTVTFTNAESQELIYTFTATFTRRLVPFLWLKWPGTRLLLRP [TRIM26] | – | 0.882 | 3.9 | -1.13 | -0.225 | 51.2
